Source: patent US20210130436A1 (published 2021)

Legend:
CD96 [1] = molecular target: T1, CD96 (UniProt P40200 22-585, limits assumed); test: flow cytometry on cells expressing CD96
T1 construct: whole, on cells
T1 sequence (looked up): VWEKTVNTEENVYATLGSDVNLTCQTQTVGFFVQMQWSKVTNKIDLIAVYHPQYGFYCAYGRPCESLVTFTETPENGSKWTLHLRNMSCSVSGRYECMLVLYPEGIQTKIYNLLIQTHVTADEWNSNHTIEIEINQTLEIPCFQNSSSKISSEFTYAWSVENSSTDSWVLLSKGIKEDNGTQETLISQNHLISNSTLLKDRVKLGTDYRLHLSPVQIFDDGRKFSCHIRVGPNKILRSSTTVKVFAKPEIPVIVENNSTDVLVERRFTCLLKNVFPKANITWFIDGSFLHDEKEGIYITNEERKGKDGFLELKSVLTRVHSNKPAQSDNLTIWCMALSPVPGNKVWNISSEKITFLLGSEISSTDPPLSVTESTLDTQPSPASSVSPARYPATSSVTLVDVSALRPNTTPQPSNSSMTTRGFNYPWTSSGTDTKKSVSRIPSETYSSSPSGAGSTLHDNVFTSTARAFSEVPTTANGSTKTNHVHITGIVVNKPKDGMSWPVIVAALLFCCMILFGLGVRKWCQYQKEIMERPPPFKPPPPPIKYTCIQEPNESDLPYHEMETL

[2] = molecular target: T2, human CD28, full length, expressed on transfected HEK293 cells (human, UniProt P10747 19-220); test: flow cytometry, HEK293 cells transfected with human CD28
T2 construct: Full-length surface expression construct from Genscript

CD226 [3] = molecular target: T3, CD226 (Homo sapiens (Human), UniProt Q15762 19-336); test: flow cytometry on CD226-transfected Expi293 cells; reference itself
T3 construct: also called CD226 tfxn
T3 sequence: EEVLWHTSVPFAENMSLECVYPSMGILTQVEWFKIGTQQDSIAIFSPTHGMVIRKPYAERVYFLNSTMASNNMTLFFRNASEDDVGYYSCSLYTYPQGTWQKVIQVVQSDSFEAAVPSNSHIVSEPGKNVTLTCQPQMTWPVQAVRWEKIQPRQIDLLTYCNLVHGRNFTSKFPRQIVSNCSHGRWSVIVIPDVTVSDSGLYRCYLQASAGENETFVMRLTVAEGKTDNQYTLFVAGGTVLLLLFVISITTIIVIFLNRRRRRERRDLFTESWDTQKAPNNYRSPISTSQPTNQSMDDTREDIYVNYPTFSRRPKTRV

CD226 [4] = molecular target: T3, CD226; test: flow cytometry on CD226-transfected Expi293 cells
TIGIT [5] = molecular target: T4, TIGIT (Homo sapiens (Human), UniProt Q495A1 23-244); test: flow cytometry on TIGIT-transfected Expi293 cells; reference itself
T4 construct: also called TIGIT tfxn
T4 sequence: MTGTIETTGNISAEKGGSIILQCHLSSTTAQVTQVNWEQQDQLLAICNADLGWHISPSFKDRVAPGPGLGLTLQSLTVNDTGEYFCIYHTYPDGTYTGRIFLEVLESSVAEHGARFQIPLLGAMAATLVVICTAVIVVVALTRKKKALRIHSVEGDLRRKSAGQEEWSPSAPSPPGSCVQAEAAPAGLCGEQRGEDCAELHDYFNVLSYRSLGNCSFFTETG

TIGIT [6] = molecular target: T4, TIGIT; test: flow cytometry on TIGIT-transfected Expi293 cells
CD96 [7] = molecular target: T5, CD96 (UniProt P40200 22-585, limits assumed); test: flow cytometry on CD96-expressing cells; reference itself
T5 construct: whole, on cells
T5 sequence (looked up): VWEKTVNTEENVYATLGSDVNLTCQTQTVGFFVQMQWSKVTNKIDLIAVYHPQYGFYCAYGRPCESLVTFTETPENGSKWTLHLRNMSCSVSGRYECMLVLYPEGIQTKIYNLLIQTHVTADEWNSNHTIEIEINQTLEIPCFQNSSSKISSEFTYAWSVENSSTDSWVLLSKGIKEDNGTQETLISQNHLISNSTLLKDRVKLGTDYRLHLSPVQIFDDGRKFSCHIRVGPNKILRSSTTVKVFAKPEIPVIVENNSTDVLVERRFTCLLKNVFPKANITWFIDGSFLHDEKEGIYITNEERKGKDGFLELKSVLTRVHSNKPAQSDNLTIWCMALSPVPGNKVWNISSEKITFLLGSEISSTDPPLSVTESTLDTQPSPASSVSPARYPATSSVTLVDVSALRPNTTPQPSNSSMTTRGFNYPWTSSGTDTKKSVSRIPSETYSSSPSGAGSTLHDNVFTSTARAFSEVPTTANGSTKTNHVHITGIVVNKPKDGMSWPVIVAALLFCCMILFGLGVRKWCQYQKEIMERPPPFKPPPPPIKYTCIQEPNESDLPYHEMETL

CD96 [8] = molecular target: T5, CD96; test: flow cytometry on CD96-expressing cells
TIGIT [9] = molecular target: T6, TIGIT (UniProt Q495A1 22-244); test: flow cytometry on cells expressing TIGIT, Fc fusion at 100 nM
T6 construct: whole, on cells
T6 sequence (looked up): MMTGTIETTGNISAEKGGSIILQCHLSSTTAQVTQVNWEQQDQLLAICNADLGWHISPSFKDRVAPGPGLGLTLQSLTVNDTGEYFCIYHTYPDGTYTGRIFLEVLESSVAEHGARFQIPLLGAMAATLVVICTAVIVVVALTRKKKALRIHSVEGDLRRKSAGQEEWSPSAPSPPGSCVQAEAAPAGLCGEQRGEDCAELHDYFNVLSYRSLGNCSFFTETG

TIGIT [10] = molecular target: T6, TIGIT; test: flow cytometry, MFI ratio to wildtype CD155 ECD-Fc, TIGIT cells
TIGIT [11] = molecular target: T7, TIGIT (UniProt Q495A1 22-244); test: flow cytometry, Fc fusion at 25 nM on cells expressing TIGIT
T7 construct: whole, on cells; Expressed on transfected cells
T7 sequence (looked up): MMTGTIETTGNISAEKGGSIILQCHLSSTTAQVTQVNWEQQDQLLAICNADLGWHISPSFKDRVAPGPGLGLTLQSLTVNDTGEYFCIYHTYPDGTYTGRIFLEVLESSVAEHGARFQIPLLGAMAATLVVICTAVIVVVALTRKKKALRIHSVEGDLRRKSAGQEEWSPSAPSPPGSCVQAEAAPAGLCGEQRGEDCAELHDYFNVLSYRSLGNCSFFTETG

B1: CD112 Y33H/N47K/Q79R/N106Y/A112V IgV-Fc (Fc fusion, not shown: a dimerising Fc or GST)
chain: QDVRVQVLPEVRGQLGGTVELPCHLLPPVPGLHISLVTWQRPDAPAKHQNVAAFHPKMGPSFPSPKPGSERLSFVSAKRSTGQDTEAELQDATLALHGLTVEDEGYYTCEFVTFPKGSVRGMTWLRV
MFI at 100 nM (CD96 [1]): 1680 MFI

B2: WT CD80 ECD-Fc (inert) (Fc fusion, not shown: a dimerising Fc or GST)
chain: VIHVTKEVKEVATLSCGHNVSVEELAQTRIYWQKEKKMVLTMMSGDMNIWPEYKNRTIFDITNNLSIVILALRPSDEGTYECVVLKYEKDAFKREHLAEVTLSVKADFPTPSISDFEIPTSNIRRIICSTSGGFPEPHLSWLENGEELNAINTTVSQDPETELYAVSSKLDFNMTTNHSFMCLIKYGHLRVNQTFNWNTTKQEHFPDN
notes: also called wild-type CD80-ECD-Fc (inert)
MFI at 66.6 nM [2]: 3070 MFI

B3: wild-type CD155 IgV-Fc (Fc fusion, not shown: a dimerising Fc or GST)
chain: WPPPGTGDVVVQAPTQVPGFLGDSVTLPCYLQVPNMEVTHVSQLTWARHGESGSMAVFHQTQGPSYSESKRLEFVAARLGAELRNASLRMFGLRVEDEGNYTCLFVTFPQGSRSVDIWLRVL
MFI parental ratio (CD226 [3]): 1 fold | MFI (CD226 [4]): 3720 MFI | MFI parental ratio (TIGIT [5]): 1 fold | MFI (TIGIT [6]): 2720 MFI | MFI parental ratio (CD96 [7]): 1 fold | MFI (CD96 [8]): 3080 MFI

B4: CD155 IgV Fc (Fc fusion, not shown: a dimerising Fc or GST)
chain: WPPPGTGDVVVQAPTQVPGFLGDSVTLPCYLQVPNMEVTHVSQLTWARHGESGSMAVFHQTQGPSYSESKRLEFVAARLGAELRNASLRMFGLRVEDEGNYTCLFVTFPQGSRSVDIWLRVL
MFI at 100 nM (TIGIT [9]): 4690 MFI | Fold ↑ to WT ECD (TIGIT [10]): 0.01 fold

B5: variant CD155 IgV-Fc V9L/V11M/P18S/N35S/S54G/Q62K/L79P/L104M/T107M/V115M (Fc fusion, not shown: a dimerising Fc or GST)
chain: WPPPGTGDLVMQAPTQVSGFLGDSVTLPCYLQVPSMEVTHVSQLTWARHGESGGMAVFHQTKGPSYSESKRLEFVAARPGAELRNASLRMFGLRVEDEGNYTCMFVMFPQGSRSMDIWLRVL
notes: also called V9L/V11M/P18S/N355/S54G/Q62K/L79P/L104M/T107M/V115M
MFI at 25 nM (TIGIT [11]): 3000 MFI
